What follows are sequences tested on Escherichia coli TOP10 (assay: shrunken log2 fold change of peptide-encoding DNA abundance (4.5 h post-induction vs induction); higher = less antimicrobial activity (less host growth inhibition)). Conditions: time post-induction: 4.5 h; library: site-saturation at positions 5, 18, 19, 20.
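Further: peptides expressed intracellularly from a pBAD plasmid library in pooled LB shake-flask culture, induced with 0.3% L-arabinose, DNA abundance read by NGS, three biological replicates, DESeq2 with apeglm shrinkage.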

Row | Sequence | shrunken log2 fold change
1 | RRIRSRPPRLPRPRPRPHPEPRP | 0.316
2 | RRIRWRPPRLPRPRPRPRGDPRP | 1.03
3 | RRIRSRPPRLPRPRPRPLSVPRP | -0.0334
4 | RRIRTRPPRLPRPRPRPMPIPRP | -0.0197
5 | RRIRTRPPRLPRPRPRPIHRPRP | -0.00127
6 | RRIRHRPPRLPRPRPRPVREPRP | 0.522
7 | RRIRPRPPRLPRPRPRPLDRPRP | -0.000978
8 | RRIRMRPPRLPRPRPRPLGFPRP | 0.772
9 | RRIRMRPPRLPRPRPRPEVWPRP | 1.13
10 | RRIRHRPPRLPRPRPRPIGDPRP | -0.00136
11 | RRIRYRPPRLPRPRPRPDEAPRP | 0.033
12 | RRIRVRPPRLPRPRPRPEIGPRP | 0.0353
13 | RRIRERPPRLPRPRPRPWFWPRP | 0.061
14 | RRIRKRPPRLPRPRPRPNISPRP | -0.102
15 | RRIRMRPPRLPRPRPRPYMAPRP | -0.162
16 | RRIRKRPPRLPRPRPRPIIEPRP | -0.0922
17 | RRIRLRPPRLPRPRPRPSFTPRP | -0.672
18 | RRIRGRPPRLPRPRPRPDIGPRP | 0.663
19 | RRIRKRPPRLPRPRPRPSEFPRP | 0.154
20 | RRIRTRPPRLPRPRPRPWKQPRP | 0.0162
21 | RRIRVRPPRLPRPRPRPVTTPRP | 0.126
22 | RRIRKRPPRLPRPRPRPIEVPRP | 0.287
23 | RRIRCRPPRLPRPRPRPMDSPRP | -0.142
24 | RRIRCRPPRLPRPRPRPMKRPRP | -0.176
25 | RRIRLRPPRLPRPRPRPLDAPRP | 0.112

Row | Sequence | shrunken log2 fold change
26 | RRIRMRPPRLPRPRPRPGINPRP | -0.319
27 | RRIRGRPPRLPRPRPRPYCSPRP | -0.0241
28 | RRIRKRPPRLPRPRPRPFVMPRP | 0.261
29 | RRIRERPPRLPRPRPRPPVTPRP | -0.152
30 | RRIRLRPPRLPRPRPRPHFEPRP | 0.118
31 | RRIRRRPPRLPRPRPRPHQFPRP | -0.183
32 | RRIRMRPPRLPRPRPRPKFFPRP | 0.0606
33 | RRIRIRPPRLPRPRPRPANWPRP | 0.236
34 | RRIRQRPPRLPRPRPRPFTYPRP | -0.0211
35 | RRIRHRPPRLPRPRPRPNRNPRP | -1.01
36 | RRIRRRPPRLPRPRPRPATFPRP | 0.0785
37 | RRIRCRPPRLPRPRPRPHCGPRP | -0.156
38 | RRIRKRPPRLPRPRPRPPGVPRP | 0.548
39 | RRIRLRPPRLPRPRPRPVFHPRP | -0.143
40 | RRIRNRPPRLPRPRPRPSIDPRP | -0.782
41 | RRIRSRPPRLPRPRPRPRWNPRP | 0.0205
42 | RRIRARPPRLPRPRPRPRRNPRP | 0.308
43 | RRIRKRPPRLPRPRPRPKGSPRP | 0.436
44 | RRIRIRPPRLPRPRPRPVCNPRP | -0.52
45 | RRIRRRPPRLPRPRPRPQHPPRP | 0.526
46 | RRIRFRPPRLPRPRPRPDRHPRP | -0.164
47 | RRIRHRPPRLPRPRPRPSQHPRP | -0.411
48 | RRIRQRPPRLPRPRPRPTRKPRP | -0.0205
49 | RRIRVRPPRLPRPRPRPSCCPRP | -0.133
50 | RRIRHRPPRLPRPRPRPRCYPRP | -0.154

Row | Sequence | shrunken log2 fold change
51 | RRIRVRPPRLPRPRPRPLPRPRP | 0.642
52 | RRIRQRPPRLPRPRPRPDEPPRP | -0.0062
53 | RRIRCRPPRLPRPRPRPFSYPRP | -0.947
54 | RRIRWRPPRLPRPRPRPESFPRP | 0.528
55 | RRIRERPPRLPRPRPRPISGPRP | -0.564
56 | RRIRCRPPRLPRPRPRPFECPRP | -0.365
57 | RRIRVRPPRLPRPRPRPQVAPRP | -0.136
58 | RRIRHRPPRLPRPRPRPLAIPRP | -0.346
59 | RRIRKRPPRLPRPRPRPYGKPRP | -0.154
60 | RRIRERPPRLPRPRPRPTLIPRP | 0.0112
61 | RRIRNRPPRLPRPRPRPLMRPRP | 0.627
62 | RRIRERPPRLPRPRPRPWPHPRP | -0.0947
63 | RRIRRRPPRLPRPRPRPNQEPRP | -0.0479
64 | RRIRTRPPRLPRPRPRPIWEPRP | -0.178
65 | RRIRIRPPRLPRPRPRPMMKPRP | -0.166
66 | RRIRSRPPRLPRPRPRPVHLPRP | -0.177
67 | RRIRNRPPRLPRPRPRPPYMPRP | -1.13
68 | RRIRMRPPRLPRPRPRPKEIPRP | 0.38
69 | RRIRPRPPRLPRPRPRPHAEPRP | 0.206
70 | RRIRNRPPRLPRPRPRPQIYPRP | -0.0394
71 | RRIRCRPPRLPRPRPRPNKSPRP | -0.584
72 | RRIRRRPPRLPRPRPRPIFKPRP | 0.196
73 | RRIRNRPPRLPRPRPRPECIPRP | 2.1
74 | RRIRCRPPRLPRPRPRPSPSPRP | 0.128
75 | RRIRCRPPRLPRPRPRPKYDPRP | -0.605

From the supplement of paper PMC9112550, “Optimization of the antimicrobial peptide Bac7 by deep mutational scanning” (BMC Biology, 2022)
